Reference: patent publication US20150284431A1
Square brackets hold non-standard residues; d marks the D form. * marks the point of attachment. Butanoyl(4-Ph) = O=C(CCCc1ccccc1)*; Butanoyl(4-ethynyl) = C#CCCCC(=O)*

Tests used:
[1] = target: human melanocortin 1 receptor (human) (UniProt Q01726); test: competition with Eu-NDP-alpha-MSH, Eu time-resolved fluorescence, HCT116/hMC1R cells; concentration normalized to the targeting group
[2] = target: human melanocortin 1 receptor (human) (UniProt Q01726); test: competition with Eu-NDP-alpha-MSH, time-resolved fluorescence; 10% ligand loading

Chain of human melanocortin 1 receptor (human) (Q01726 whole entry): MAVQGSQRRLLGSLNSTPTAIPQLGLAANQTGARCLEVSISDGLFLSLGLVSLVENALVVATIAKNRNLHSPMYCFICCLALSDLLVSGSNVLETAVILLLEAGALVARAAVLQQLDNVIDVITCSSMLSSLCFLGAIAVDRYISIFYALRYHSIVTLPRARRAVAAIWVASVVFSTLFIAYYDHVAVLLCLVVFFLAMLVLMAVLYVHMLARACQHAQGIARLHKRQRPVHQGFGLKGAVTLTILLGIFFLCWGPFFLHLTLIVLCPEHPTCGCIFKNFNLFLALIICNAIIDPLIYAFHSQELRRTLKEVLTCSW

Ki [1] | Ki [2] | Binder
11.5 nM | – | HFRWGK (peptide, part only; not given: triblock polymer carrier, part only, not fully specified; N-terminal 4-phenylbutyryl; DPhe at 2; Lys(hex-5-ynoyl) at 6 joined by a 1,2,3-triazole to the PEG block of the triblock polymer; C-terminal amide) [4-targeted micelles]
– | 12 nM | {Butanoyl(4-Ph)}-H[dF]RWGK(Butanoyl(4-ethynyl))-NH2 (peptide, part only; not given: triblock polymer carrier, part only, also: micelle not crosslinked, triblock polymer block lengths not given here) [4-targeted uncrosslinked (UXL) micelle]
– | 2.9 nM | {Butanoyl(4-Ph)}-H[dF]RWGK(Butanoyl(4-ethynyl))-NH2 (peptide, part only; not given: crosslinked triblock polymer carrier, part only, also: micelle crosslinked with Fe(III), triblock polymer block lengths not given here) [4-targeted crosslinked (XL) micelle]
25.6 nM | – | HFRWGK (peptide, part only; not given: triblock polymer, part only, N-terminal 4-phenylbutyryl; DPhe at 2; Lys(hex-5-ynoyl) at 6 joined by a 1,2,3-triazole (click reaction) to the azide end of the PEG block of the triblock polymer; C-terminal amide) [4-targeted triblock polymer]
